± gives the uncertainty stated by the source.
B1: Ankyrin-3, residues 4094 to 4171; numbered along this chain, Q12955 (parent)
chain: MAIVADHLGLSWTELARELNFSVDEINQIRVENPNSLISQSFMLLKKWVTRDGKNATTDALTSVLTKINRIDIVTLLE

Variants of: B1
Assay: abundance fitness (aPCA) (normalised: wild type 0, dead -1); higher = more abundant; growth selection in yeast, the domain comes from the species named
Settings: Homo sapiens

For MAIVADHLGLSWTHLARELNFSVDEINQIRVENPNSLISQSFMLLKKWVTRDGKNATTDALTSVLTKINRIDIVTLLE [E14H], which abundance fitness is on record?
Its abundance fitness is -0.156 ± 0.12.

For MAIVADHLGLSWTELARELNFSVDEINQIRVENPNSLISQSFMLLKKWVTVDGKNATTDALTSVLTKINRIDIVTLLE [R51V], which abundance fitness is on record?
Its abundance fitness is -0.789 ± 0.12.

For MAIVADHLGLSWTELARELNFSVDEINQIRVENPNSLISQSFMLLKKWVTRDGKRATTDALTSVLTKINRIDIVTLLE [N55R], which abundance fitness is on record?
The abundance fitness was -0.073 ± 0.042.

For MAIVADHLGLSWTELARELNFSVDEINQIRVENPNSWISQSFMLLKKWVTRDGKNATTDALTSVLTKINRIDIVTLLE [L37W], which abundance fitness is on record?
Its abundance fitness is -0.395 ± 0.12.

Which abundance fitness does the source give for MAIVADHLGLSWTELDRELNFSVDEINQIRVENPNSLISQSFMLLKKWVTRDGKNATTDALTSVLTKINRIDIVTLLE [A16D] here?
Its abundance fitness is -0.813 ± 0.31.

Which abundance fitness does the source give for MAIVADHLGLSWTELADELNFSVDEINQIRVENPNSLISQSFMLLKKWVTRDGKNATTDALTSVLTKINRIDIVTLLE [R17D] here?
Its abundance fitness is -0.203 ± 0.13.

For MAIVADHLGLSWTELARELNFSVDEINQIRVENPRSLISQSFMLLKKWVTRDGKNATTDALTSVLTKINRIDIVTLLE [N35R], which abundance fitness is on record?
The abundance fitness was -0.128 ± 0.047.

For MAIVADHLGLSWTELARELNFSVDEINQIRVENPNSLISQCFMLLKKWVTRDGKNATTDALTSVLTKINRIDIVTLLE [S41C], which abundance fitness is on record?
The abundance fitness was -0.538 ± 0.12.

Which abundance fitness does the source give for MAIVADHLGLSWTELARELNFSVDEINQIRVENPNSLISQSFMLLEKWVTRDGKNATTDALTSVLTKINRIDIVTLLE [K46E] here?
Its abundance fitness is -0.013 ± 0.14.

For MAIVADHLGLSWTELARELNFSVDEINQIRVHNPNSLISQSFMLLKKWVTRDGKNATTDALTSVLTKINRIDIVTLLE [E32H], which abundance fitness is on record?
Its abundance fitness is -0.396 ± 0.28.

With MAIVADHLGLSWTELARELNFSVDEINQIRVENPNSLISQSFMLLKKWVTRDGKNATTDALTSVLTKINRIDIVTYLE [L76Y] as the variant, how does the abundance fitness read?
The abundance fitness was -0.546 ± 0.33.

With MAIVADHLGHSWTELARELNFSVDEINQIRVENPNSLISQSFMLLKKWVTRDGKNATTDALTSVLTKINRIDIVTLLE [L10H] as the variant, how does the abundance fitness read?
The abundance fitness was 0.124 ± 0.079.

For MAIVADHLGLSWTELARELNFSVDEINQIRVENPNSLISQSFMLLKKWVTRDGKNAYTDALTSVLTKINRIDIVTLLE [T57Y], which abundance fitness is on record?
Its abundance fitness is -0.14 ± 0.12.

For MAIVADHLGLSWTELARELNFSVDEINQIRVENPNSLISQSFMLLKKWVTRDGKNATTDALTSVLTKINRIGIVTLLE [D72G], which abundance fitness is on record?
The abundance fitness was -0.878 ± 0.14.

With MAIVADHLGLSWTELARELNFSVDEINQIRVENPNSLISQSFMLLKKWVTRLGKNATTDALTSVLTKINRIDIVTLLE [D52L] as the variant, how does the abundance fitness read?
Its abundance fitness is -0.89 ± 0.15.

For MAIVAAHLGLSWTELARELNFSVDEINQIRVENPNSLISQSFMLLKKWVTRDGKNATTDALTSVLTKINRIDIVTLLE [D6A], which abundance fitness is on record?
The abundance fitness was -0.25 ± 0.069.

Which abundance fitness does the source give for MAIVADHLGLSWTELARELNFSVDEINQIRVENPNSLISQSFMLLKKWVTRDGKNATTDALPSVLTKINRIDIVTLLE [T62P] here?
Its abundance fitness is -0.102 ± 0.089.

For MAIVADHLGLSWTELARELNFSVDEINQIRVENPNSLISQSFMLLKKWVTRDGVNATTDALTSVLTKINRIDIVTLLE [K54V], which abundance fitness is on record?
Its abundance fitness is 0.038 ± 0.055.

With MAIVADHLGLSWTELARELNFSVDEINQIRVINPNSLISQSFMLLKKWVTRDGKNATTDALTSVLTKINRIDIVTLLE [E32I] as the variant, how does the abundance fitness read?
Its abundance fitness is -0.621 ± 0.2.

For MAIVADHLGLSWTELARELNFSVDEINQIRVENPNSQISQSFMLLKKWVTRDGKNATTDALTSVLTKINRIDIVTLLE [L37Q], which abundance fitness is on record?
The abundance fitness was -0.032 ± 0.052.

Which abundance fitness does the source give for MAIVADHLGFSWTELARELNFSVDEINQIRVENPNSLISQSFMLLKKWVTRDGKNATTDALTSVLTKINRIDIVTLLE [L10F] here?
The abundance fitness was 0.032 ± 0.062.

Which abundance fitness does the source give for MAIVADHLGLSWTELARELNFSVDEINQIRVENPNSLISQSFMLLKKWVTRDGKNATTDALTSVLTKINRTDIVTLLE [I71T] here?
Its abundance fitness is -0.016 ± 0.13.

With MAIVADHLGLSWTELARELNFSVDEINQIRVENPNSLISQSFMELKKWVTRDGKNATTDALTSVLTKINRIDIVTLLE [L44E] as the variant, how does the abundance fitness read?
The abundance fitness was -0.902 ± 0.39.

Which abundance fitness does the source give for MAIVADHLGLSWTELARELNFSVDEINQIRVENPYSLISQSFMLLKKWVTRDGKNATTDALTSVLTKINRIDIVTLLE [N35Y] here?
Its abundance fitness is -0.307 ± 0.14.

With MAIVADHLGLSWTELARELNFSVDEINQIRVENRNSLISQSFMLLKKWVTRDGKNATTDALTSVLTKINRIDIVTLLE [P34R] as the variant, how does the abundance fitness read?
The abundance fitness was -0.26 ± 0.058.

With MAIVADHLWLSWTELARELNFSVDEINQIRVENPNSLISQSFMLLKKWVTRDGKNATTDALTSVLTKINRIDIVTLLE [G9W] as the variant, how does the abundance fitness read?
Its abundance fitness is -0.786 ± 0.17.

Which abundance fitness does the source give for MAIVADHLGLSWTELARELNFSVDEINQIRVENPNSLISQSFMLLKKWVTRDGKNATTDALTQVLTKINRIDIVTLLE [S63Q] here?
The abundance fitness was -0.012 ± 0.079.

With MAIVADHLGLSWTELARELNFSVDEINQIRVENPNSLISQSFMLLKKWVWRDGKNATTDALTSVLTKINRIDIVTLLE [T50W] as the variant, how does the abundance fitness read?
Its abundance fitness is -0.065 ± 0.06.

With MAIVADHLGLSWTELARELNFSVDEINQIRVENPNSLISQSFMLLKKWVTRDGKNATTDALTSVLTKINRIDIVTLIE [L77I] as the variant, how does the abundance fitness read?
Its abundance fitness is -0.293 ± 0.22.

Which abundance fitness does the source give for MAIVADHLGLSWTELARELNFSVDEINQIRVENPNSLISQSFMLLKKWVTRDGKNATTDALTSVLTKKNRIDIVTLLE [I68K] here?
Its abundance fitness is -0.606 ± 0.25.

Which abundance fitness does the source give for MAIVAPHLGLSWTELARELNFSVDEINQIRVENPNSLISQSFMLLKKWVTRDGKNATTDALTSVLTKINRIDIVTLLE [D6P] here?
The abundance fitness was -0.238 ± 0.078.

Which abundance fitness does the source give for MAIVADHLGLSWTELARELNFSVDEINQIRVENPNSLISQSFMLLKKWVTRDGKNATTDALTSVLTKINRIDIMTLLE [V74M] here?
The abundance fitness was -0.749 ± 0.41.

With MAIVADHLGLSWTELARELNFSVDEINQIRVENPNSLISQSFMQLKKWVTRDGKNATTDALTSVLTKINRIDIVTLLE [L44Q] as the variant, how does the abundance fitness read?
Its abundance fitness is -0.784 ± 0.16.

Which abundance fitness does the source give for MAIVADHLGLSWTELARELNFSVDEINQIRVENPNSLRSQSFMLLKKWVTRDGKNATTDALTSVLTKINRIDIVTLLE [I38R] here?
Its abundance fitness is 0.089 ± 0.044.

With MAIVADHLGLSWTELARELNFSVDEINQIRVENPNSLISQSFMLLKKWVTRDGINATTDALTSVLTKINRIDIVTLLE [K54I] as the variant, how does the abundance fitness read?
Its abundance fitness is 0.065 ± 0.12.
